Experimental data: patent publication US20220265842A1, “ANTI-CD40 ANTIBODY DRUG CONJUGATES” (priority 2017, published 2022)

B1: Example 12-hydrolyzed (human), n=4 (antibody, human IgG1, kappa, L234A L235A, V domains shown)
VH: EVQLVESGGGLVKPGGSLRLSCAASGFTFSDYGMNWVRQAPGKGLEWIAYISSGRGNIYYADTVKGRFTISRDNAKNSLYLQMNSLRAEDTAVYYCARSWGYFDVWGQGTTVTVSS
VL: DIVMTQSPDSLAVSLGERATINCKSSQSLLNRGNQKNYLTWFQQKPGQPPKLLIYWASTRESGVPDRFSGSGSGTDFTLTISSLQAEDVAVYYCQNDYTYPLTFGQGTKLEIKR
modifications: glucocorticoid drug-linker of Precursor Example 12 (maleimide, thiosuccinimide ring hydrolyzed) on cysteine thiols of reduced disulfides; n=4 per antibody; positions not given
B2: Example 28-conjugated (human), n=2 (antibody, human IgG1, kappa, L234A L235A, DAR 2, V domains shown)
VH: EVQLVESGGGLVKPGGSLRLSCAASGFTFSDYGMNWVRQAPGKGLEWIAYISSGRGNIYYADTVKGRFTISRDNAKNSLYLQMNSLRAEDTAVYYCARSWGYFDVWGQGTTVTVSS
VL: DIVMTQSPDSLAVSLGERATINCKSSQSLLNRGNQKNYLTWFQQKPGQPPKLLIYWASTRESGVPDRFSGSGSGTDFTLTISSLQAEDVAVYYCQNDYTYPLTFGQGTKLEIKR
modifications: glucocorticoid drug-linker of Precursor Example 28 (bromoacetamide) on cysteine thiols of reduced interchain disulfides; n=2 per antibody; positions not given
B3: Human anti-CD40 antibody Ab102 (antibody, human IgG1, kappa, L234A L235A, V domains shown)
VH: EVQLVESGGGLVKPGGSLRLSCAASGFTFSDYGMNWVRQAPGKGLEWIAYISSGRGNIYYADTVKGRFTISRDNAKNSLYLQMNSLRAEDTAVYYCARSWGYFDVWGQGTTVTVSS
VL: DIVMTQSPDSLAVSLGERATINCKSSQSLLNRGNQKNYLTWFQQKPGQPPKLLIYWASTRESGVPDRFSGSGSGTDFTLTISSLQAEDVAVYYCQNDYTYPLTFGQGTKLEIKR
B4: Example 28-conjugated (human), n=4 (antibody, human IgG1, kappa, L234A L235A, DAR 4, V domains shown)
VH: EVQLVESGGGLVKPGGSLRLSCAASGFTFSDYGMNWVRQAPGKGLEWIAYISSGRGNIYYADTVKGRFTISRDNAKNSLYLQMNSLRAEDTAVYYCARSWGYFDVWGQGTTVTVSS
VL: DIVMTQSPDSLAVSLGERATINCKSSQSLLNRGNQKNYLTWFQQKPGQPPKLLIYWASTRESGVPDRFSGSGSGTDFTLTISSLQAEDVAVYYCQNDYTYPLTFGQGTKLEIKR
modifications: glucocorticoid drug-linker of Precursor Example 28 (bromoacetamide) on cysteine thiols of reduced interchain disulfides; n=4 per antibody; positions not given
B5: Example 4-conjugated (human), n=4 (antibody, human IgG1, kappa, L234A L235A, DAR 4, V domains shown)
VH: EVQLVESGGGLVKPGGSLRLSCAASGFTFSDYGMNWVRQAPGKGLEWIAYISSGRGNIYYADTVKGRFTISRDNAKNSLYLQMNSLRAEDTAVYYCARSWGYFDVWGQGTTVTVSS
VL: DIVMTQSPDSLAVSLGERATINCKSSQSLLNRGNQKNYLTWFQQKPGQPPKLLIYWASTRESGVPDRFSGSGSGTDFTLTISSLQAEDVAVYYCQNDYTYPLTFGQGTKLEIKR
modifications: glucocorticoid drug-linker of Precursor Example 4 (bromoacetamide) on cysteine thiols of reduced interchain disulfides; n=4 per antibody; positions not given
B6: Example 13-hydrolyzed (human), n=4 (antibody, human IgG1, kappa, L234A L235A, V domains shown)
VH: EVQLVESGGGLVKPGGSLRLSCAASGFTFSDYGMNWVRQAPGKGLEWIAYISSGRGNIYYADTVKGRFTISRDNAKNSLYLQMNSLRAEDTAVYYCARSWGYFDVWGQGTTVTVSS
VL: DIVMTQSPDSLAVSLGERATINCKSSQSLLNRGNQKNYLTWFQQKPGQPPKLLIYWASTRESGVPDRFSGSGSGTDFTLTISSLQAEDVAVYYCQNDYTYPLTFGQGTKLEIKR
modifications: glucocorticoid drug-linker of Precursor Example 13 (maleimide, thiosuccinimide ring hydrolyzed) on cysteine thiols of reduced disulfides; n=4 per antibody; positions not given

What was measured:
[1] = biological target: human CD40 Transcript 1 (Myc-DDK-tagged) on HEK293 GRE reporter cells (human, UniProt P25942 21-277); experiment: cell-based or functional assay
Chain of human CD40 Transcript 1 (Myc-DDK-tagged) on HEK293 GRE reporter cells (P25942 21-277): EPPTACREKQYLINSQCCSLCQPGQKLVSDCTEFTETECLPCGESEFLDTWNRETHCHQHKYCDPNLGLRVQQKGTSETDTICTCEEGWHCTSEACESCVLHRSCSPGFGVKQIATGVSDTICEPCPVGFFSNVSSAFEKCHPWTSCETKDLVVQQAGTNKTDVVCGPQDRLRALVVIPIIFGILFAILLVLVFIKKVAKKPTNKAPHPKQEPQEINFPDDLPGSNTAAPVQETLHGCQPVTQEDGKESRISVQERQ

[2] = biological target: human CD40 on LPS-stimulated human monocyte-derived dendritic cells (human, UniProt P25942 21-277); experiment: cell-based or functional assay
Chain of human CD40 on LPS-stimulated human monocyte-derived dendritic cells (P25942 21-277 limits assumed): as the sequence (P25942 21-277) above

| Binder | hCD40 GRE (% max) [1] [%] | hCD40 GRE EC50 [1] [µg/mL] | IL-6 release IC50 [2] [µg/mL] | Max Inhibition (%) [2] [%] |
| --- | --- | --- | --- | --- |
| B1 | 163 | 0.19 | 0.04 | 99.5 |
| B2 | 90 | 16.5 | 0.03 | 81.8 |
| B3 | – | – | 0.18 | 44.5 |
| B4 | 77 | 0.53 | 0.05 | 87.6 |
| B5 | 88 | 6.57 | – | – |
| B6 | 67 | 0.29 | 0.14 | 83.3 |
